This is an account of results in paper PMC2773364.

Substrate in data set [1]: CC(C)C[C@H](NC(=O)OCc1ccccc1)C(=O)N[C@@H](Cc1ccc(O)cc1)C(=O)O
The data set can be described thus: purified protein. Particulars: 50 mM acetate buffer, pH 3.7, 30°C.

Substrate in data set [2]: O=C(O)CC[C@H](NC(=O)OCc1ccccc1)C(=O)N[C@@H](Cc1ccc(O)cc1)C(=O)O
Kind of data set: purified protein. To be noted: 50 mM acetate buffer, pH 3.7, 30°C.

B1: recombinant OcpA (Aspergillus oryzae RIB40) (protein)
chain: YVNNSGICETTKGVNQYSGYLSVGENQNMFFWFFESRNNPQQAPLSAWFNGGPGCSSMIGLFQEHGPCHFVNGEDTPSLNEHSWNNFANMLYIDQPIGVGFSYGDNPVNSTWTAAPYVWKFLQAFYEHFPQYESRDFGIFTESYGGHYGPGFASYILDQNNAIEAGSQKGEKVNLVALGINNGMFDSTLQEKAYITFAYNNTYRQLIDESLKDKLLEAYESECLPAVQKCQQTQTNEDCQNAGSVCGESVENPIMQAGGDFDVYDVREPSNDPNPPETYSKYIARPDIMKAIGARSDYQECADAPGQKFGATGDEYRSTLPDLSEVIKAGVNVLVWAGTADYICNVDGSIAVANAVDFSGHDEFQGKALEAYKVNGKEVGQFKSVDNFHLLTVYDAGHEVPYYQPETALQAFTQILQKKPLSST
On to B1, for which, in the data set “purified protein [1]”, the Km came out at 410 µM, the kcat was found to be 18 s⁻¹ and the kcat/Km turned out to be 43900 M⁻¹ s⁻¹. In “purified protein [2]”, the Km turned out to be 260 µM, the kcat stood at 22.7 s⁻¹ and the specificity constant (kcat/Km) came to 85900 M⁻¹ s⁻¹.

B2: recombinant CpI (Aspergillus oryzae RIB40) (protein)
chain: LPGSTPASVGRRQLPKNPTGVKTLTTANNVTIRYKEPGAEGVCETTPGVKSYSGYVDTSPESHTFFWFFEARHNPETAPITLWLNGGPGSDSLIGLFEELGPCHVNSTFDDYINPHSWNEVSNLLFLSQPLGVGFSYSDTVDGSINPVTGVVENSSFAGVQGRYPTIDATLIDTTNLAAEAAWEILQGFLSGLPSLDSRVQSKDFSLWTESYGGHYGPAFFNHFYEQNERIANGSVNGVQLNFNSLGIINGIIDEAIQAPYYPEFAVNNTYGIKAVNETVYNYMKFANQMPNGCQDLISTCKQTNRTALADYALCAEATNMCRDNVEGPYYAFAGRGVYDIRHPYDDPTPPSYYNKFLAKDSVMDAIGVNINYTQSNNDVYYAFQQTGDFVWPNFIEDLEEILALPVRVSLIYGDADYICNWFGGQAVSLAANYSQAAQFRSAGYTPLKVNGVEYGETREYGNFSFTRVYEAGHEVPYYQPIASLQLFNRTIFGWDIAEGQKKIWPSYKTNGTATATHTQSSVPLPTATSMSSVGMA
Turning to B2, in “purified protein [1]”, the Km is 340 µM, the turnover number (kcat) was found to be 30.3 s⁻¹ and the kcat/Km is 89800 M⁻¹ s⁻¹. In “purified protein [2]”, the Km was determined as 270 µM, the catalytic constant (kcat) came to 20.1 s⁻¹ and the kcat/Km is 73200 M⁻¹ s⁻¹.

As a reminder, the Km is the concentration of substrate that gives half-maximal velocity. A word on the kcat: it is the maximal rate divided by the concentration of active sites. Usually kcat/Km stands for the second-order rate constant that governs catalysis at low substrate concentration.
